According to US20020119494A1 (Boehringer Ingelheim, published 2002):
No end group written: not given here.

Columns and labels:
Test in all cases: cell-based or functional assay
[1] = molecular target: T1, FPRL-1 (formyl peptide receptor like-1) receptor (human, UniProt P25090 1-351)
T1 sequence: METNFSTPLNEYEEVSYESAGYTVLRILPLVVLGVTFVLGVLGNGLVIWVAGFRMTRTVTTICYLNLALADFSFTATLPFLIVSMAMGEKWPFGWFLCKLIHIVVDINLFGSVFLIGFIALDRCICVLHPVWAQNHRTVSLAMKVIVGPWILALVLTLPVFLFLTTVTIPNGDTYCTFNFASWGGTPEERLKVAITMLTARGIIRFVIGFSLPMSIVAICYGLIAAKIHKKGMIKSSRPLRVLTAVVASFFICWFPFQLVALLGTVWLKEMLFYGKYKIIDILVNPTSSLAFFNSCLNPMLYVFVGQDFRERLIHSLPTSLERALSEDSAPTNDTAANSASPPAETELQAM

[2] = molecular target: T1, FPRL-1 (formyl peptide receptor like-1) …; remark: listed apart in the source
[3] = molecular target: T1, FPRL-1 (formyl peptide receptor like-1) …; remark: listed apart in the source
[4] = molecular target: T1, FPRL-1 (formyl peptide receptor like-1) …; remark: listed apart in the source

B1: W-peptide (peptide)
peptide: WKYMVM
modifications: not fully specified (residue 6)
In the case of B1, the “Migration Index of MonoMac6 cells, W-peptide (10 nM)” value [1] is reported as 0.95 migration index (fold over control medium), the “Migration Index of MonoMac6 cells, W-peptide (100 nM)” value [1] is reported as 1.23 migration index (fold over control medium) and the “Migration Index of MonoMac6 cells, W-peptide (1 µM)” value [1] is reported as 2.46 migration index (fold over control medium). For the same binder, the “Expression of TNFα in MonoMac 6 cells, fold induction at 3 h, W-peptide (1 µM)” value [2] was 1.03 fold induction, the “Expression of MMP-12 in MonoMac 6 cells, fold induction at 3 h, W-peptide (1 µM)” value [3] was 1.51 fold induction and the “Expression of IL-8 in MonoMac 6 cells, fold induction at 3 h, W-peptide (1 µM)” value [4] was 1.54 fold induction.
